The record followed here is patent US20230340151A1 (Pfizer, published 2023).

Where two headings read alike, the source gives them in different places.

One experiment has as its target T1, GUCY2C_ECD Peptide 19 (human).
T1 construct: also called GUCY2c peptide 19; GUCY2c-ECD peptide number 19
T1 peptide: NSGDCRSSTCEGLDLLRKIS
Description: co-crystal structure, 1.6 A.

The target of experiment [1] is T2, Human GUCY2C ECD Cleaved (human, UniProt P25092 24-430).
T2 construct: also called human GUCY2c extracellular domain protein (ECD)
Description: SPR, human IgG1. Background: In SPR one partner is held on a chip, and binding of the other changes the refractive index at the surface.

Experiment [2] addresses T2, Human GUCY2C ECD Cleaved. The experiment is described as follows: SPR, human IgG1 against human GUCY2c ECD.
For experiment [3], the target named is T2, Human GUCY2C ECD Cleaved. Description: DELFIA ELISA on coated human GUCY2c.
Experiment [4] has as its target T3, Cynomolgus GUCY2C full length on 300.19 cells (cynomolgus, UniProt P25092 24-1073 (human entry)).
T3 construct: also called cyno GUCY2c
T3 chain: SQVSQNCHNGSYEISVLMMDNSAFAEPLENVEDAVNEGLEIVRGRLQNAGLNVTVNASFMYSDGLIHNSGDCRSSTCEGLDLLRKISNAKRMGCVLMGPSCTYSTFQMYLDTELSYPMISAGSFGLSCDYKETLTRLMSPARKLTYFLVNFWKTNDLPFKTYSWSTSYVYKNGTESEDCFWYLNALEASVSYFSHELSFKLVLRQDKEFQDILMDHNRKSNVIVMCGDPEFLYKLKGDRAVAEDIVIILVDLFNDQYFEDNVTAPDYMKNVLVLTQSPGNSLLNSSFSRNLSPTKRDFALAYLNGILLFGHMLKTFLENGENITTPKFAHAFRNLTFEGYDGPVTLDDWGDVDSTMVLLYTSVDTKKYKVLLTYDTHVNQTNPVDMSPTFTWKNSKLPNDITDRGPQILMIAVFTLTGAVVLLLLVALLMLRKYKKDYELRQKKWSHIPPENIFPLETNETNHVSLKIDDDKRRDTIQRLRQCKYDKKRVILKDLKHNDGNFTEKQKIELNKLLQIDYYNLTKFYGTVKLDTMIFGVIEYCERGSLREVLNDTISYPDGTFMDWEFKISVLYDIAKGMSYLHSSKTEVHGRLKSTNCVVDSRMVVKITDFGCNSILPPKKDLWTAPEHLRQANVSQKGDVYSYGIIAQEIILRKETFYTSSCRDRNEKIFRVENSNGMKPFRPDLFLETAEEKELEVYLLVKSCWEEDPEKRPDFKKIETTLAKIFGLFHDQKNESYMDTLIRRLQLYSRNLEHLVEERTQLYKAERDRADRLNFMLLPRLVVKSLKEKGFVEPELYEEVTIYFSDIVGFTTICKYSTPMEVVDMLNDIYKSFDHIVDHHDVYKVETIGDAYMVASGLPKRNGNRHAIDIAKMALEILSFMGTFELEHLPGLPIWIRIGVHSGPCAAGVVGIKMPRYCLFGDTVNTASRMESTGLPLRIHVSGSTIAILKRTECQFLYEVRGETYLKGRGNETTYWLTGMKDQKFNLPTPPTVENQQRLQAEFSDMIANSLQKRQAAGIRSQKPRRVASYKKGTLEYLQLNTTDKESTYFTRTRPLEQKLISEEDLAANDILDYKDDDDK
Description: IHC on cell pellets.

The target of experiment [5] is T4, Murine GUCY2C full length on 300.19 cells (mouse, UniProt Q3UWA6 20-1072).
T4 construct: also called mouse GUCY2c
Description: IHC on cell pellets.

Experiment [6] concerns the target T5, Human GUCY2C full length (SEQ ID NO: 224), recombinant protein (human, UniProt P25092 24-430, limits assumed).
T5 construct: also called huGUCY2C; biotinylated human GUCY2c
Description: SPR, anti-human IgG capture, 25 C.

In experiment [7] the target is T6, Cynomolgus GUCY2C-ECD Cleaved (cynomolgus, UniProt P25092 24-430 (human entry)).
T6 construct: also called CyGUCY2C
T6 chain: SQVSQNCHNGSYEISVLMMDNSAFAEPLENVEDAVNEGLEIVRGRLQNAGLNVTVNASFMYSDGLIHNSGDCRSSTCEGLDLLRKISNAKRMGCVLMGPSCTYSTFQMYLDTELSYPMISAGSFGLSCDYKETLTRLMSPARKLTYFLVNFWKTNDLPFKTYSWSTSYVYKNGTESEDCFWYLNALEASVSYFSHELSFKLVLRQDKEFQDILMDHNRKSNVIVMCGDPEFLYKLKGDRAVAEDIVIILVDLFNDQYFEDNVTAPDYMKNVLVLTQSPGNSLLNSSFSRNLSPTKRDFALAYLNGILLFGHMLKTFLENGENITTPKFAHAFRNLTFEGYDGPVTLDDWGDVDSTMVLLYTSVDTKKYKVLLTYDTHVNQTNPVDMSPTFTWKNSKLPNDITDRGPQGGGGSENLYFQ
The experiment is described as follows: direct DELFIA, 60 C.

Experiment [8] addresses T2, Human GUCY2C ECD Cleaved. The experiment is described as follows: direct DELFIA, 60 C.
For experiment [9], the target named is T7, Human GUCY2c on tumor cells (T84, HT55) (human, UniProt P25092 24-1073). The experiment is described as follows: cell-based or functional assay.
Experiment [10] concerns the target T6, Cynomolgus GUCY2C-ECD Cleaved. The experiment is described as follows: direct DELFIA, RT.
Experiment [11] deals with T2, Human GUCY2C ECD Cleaved. The experiment is described as follows: direct DELFIA, RT.
A further experiment deals with T8, Human CD3 epsilon-delta (human).
T8 construct: Single-chain epsilon-linker-delta with His6; also called huCD3
T8 chain: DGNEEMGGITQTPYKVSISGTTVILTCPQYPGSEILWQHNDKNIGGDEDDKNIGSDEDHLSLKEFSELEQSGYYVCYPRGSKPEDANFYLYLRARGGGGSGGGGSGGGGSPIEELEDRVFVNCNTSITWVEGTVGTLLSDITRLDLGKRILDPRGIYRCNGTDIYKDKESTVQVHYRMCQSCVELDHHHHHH
Description: SPR, CD3 captured by anti-His, 25 C.

The target in experiment [12] is T7, Human GUCY2c on tumor cells (T84, HT55). Description: cell-based or functional assay. The source holds these as a separate data set.

T2 sequence (P25092 other isoform, or with tags, fused parts or gaps): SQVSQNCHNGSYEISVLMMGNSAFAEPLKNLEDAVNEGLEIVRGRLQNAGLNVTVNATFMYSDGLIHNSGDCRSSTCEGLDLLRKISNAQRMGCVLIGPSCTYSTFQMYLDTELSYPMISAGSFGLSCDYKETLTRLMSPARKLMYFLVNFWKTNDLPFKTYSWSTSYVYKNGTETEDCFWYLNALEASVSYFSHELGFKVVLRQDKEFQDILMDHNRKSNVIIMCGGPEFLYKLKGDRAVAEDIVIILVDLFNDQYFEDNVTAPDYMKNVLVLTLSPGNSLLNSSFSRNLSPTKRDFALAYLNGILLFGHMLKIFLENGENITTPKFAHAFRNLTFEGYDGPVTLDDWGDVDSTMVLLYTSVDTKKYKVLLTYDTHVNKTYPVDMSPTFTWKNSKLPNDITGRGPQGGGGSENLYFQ
T5 sequence (P25092 24-430 F281L limits assumed): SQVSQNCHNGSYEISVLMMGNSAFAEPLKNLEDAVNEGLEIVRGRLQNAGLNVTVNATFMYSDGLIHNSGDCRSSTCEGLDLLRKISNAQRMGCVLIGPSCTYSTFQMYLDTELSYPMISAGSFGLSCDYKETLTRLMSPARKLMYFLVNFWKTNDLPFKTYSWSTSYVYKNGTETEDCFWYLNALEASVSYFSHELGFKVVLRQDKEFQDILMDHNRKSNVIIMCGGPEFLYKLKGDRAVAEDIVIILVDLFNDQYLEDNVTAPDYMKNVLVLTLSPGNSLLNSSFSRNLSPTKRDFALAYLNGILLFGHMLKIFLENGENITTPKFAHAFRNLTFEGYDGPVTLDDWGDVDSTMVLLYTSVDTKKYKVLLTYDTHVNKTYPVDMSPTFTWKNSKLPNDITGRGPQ
T7 sequence (P25092 24-1073 limits assumed): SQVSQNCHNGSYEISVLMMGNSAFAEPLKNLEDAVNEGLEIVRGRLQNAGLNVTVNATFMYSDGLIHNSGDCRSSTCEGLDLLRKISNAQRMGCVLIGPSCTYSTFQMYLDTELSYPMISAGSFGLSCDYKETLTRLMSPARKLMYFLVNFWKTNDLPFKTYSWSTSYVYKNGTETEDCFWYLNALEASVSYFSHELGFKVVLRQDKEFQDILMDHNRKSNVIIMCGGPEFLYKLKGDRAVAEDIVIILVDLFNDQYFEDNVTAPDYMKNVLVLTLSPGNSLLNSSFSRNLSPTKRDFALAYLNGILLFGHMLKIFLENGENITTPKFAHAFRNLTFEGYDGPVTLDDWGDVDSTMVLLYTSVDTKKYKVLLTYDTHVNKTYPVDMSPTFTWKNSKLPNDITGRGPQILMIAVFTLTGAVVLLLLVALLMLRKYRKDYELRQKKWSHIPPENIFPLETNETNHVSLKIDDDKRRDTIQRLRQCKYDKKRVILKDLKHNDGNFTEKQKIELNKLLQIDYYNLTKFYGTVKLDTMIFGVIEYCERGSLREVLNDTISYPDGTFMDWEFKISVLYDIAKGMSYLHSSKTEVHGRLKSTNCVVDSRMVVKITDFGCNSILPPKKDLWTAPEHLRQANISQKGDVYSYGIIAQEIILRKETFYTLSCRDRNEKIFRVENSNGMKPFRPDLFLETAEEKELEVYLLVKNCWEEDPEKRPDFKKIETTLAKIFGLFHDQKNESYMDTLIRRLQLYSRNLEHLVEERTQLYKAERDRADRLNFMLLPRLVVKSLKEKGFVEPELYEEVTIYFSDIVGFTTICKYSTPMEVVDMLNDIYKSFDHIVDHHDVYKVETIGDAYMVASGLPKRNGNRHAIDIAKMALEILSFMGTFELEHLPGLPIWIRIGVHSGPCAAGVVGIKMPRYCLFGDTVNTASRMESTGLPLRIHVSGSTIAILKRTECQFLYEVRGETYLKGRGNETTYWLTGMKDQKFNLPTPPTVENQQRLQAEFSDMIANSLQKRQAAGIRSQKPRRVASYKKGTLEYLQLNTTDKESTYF

B1: GUCY2C-1608 scFv (scFv)
scFv: EVQLVESGGGLVQPGGSLRLSCAASGFTFSSYWMHWVRQAPGKGLEWIGEIKPSNELTNVHEKFKDRFTISVDKAKNSAYLQMNSLRAEDTAVYYCTRTITTTEGYWFFDVWGQGTLVTVSSGGGGSGGGGSGGGGSGDIQLTQSPSSLSASVGDRVTITCRASESVDYYGSSLLQWYQQKPGKAPKLLIYAASKLASGVPSRFSGSGSGTDFTLTISSLQPEDFATYYCQQTRKAYTFGQGTKLEIKTGSENLYFQ
For B1, the binding result with GUCY2C_ECD Peptide 19 was “binds”.

B2: GUCY2C-1715 (antibody, human IgG1, V domains shown)
VH: EVQLVESGGGLVQPGGSLRLSCAASGFTFSSYWMHWVRQAPGKGLEWIGEIKPSTKYTNVHEKFKDRFTISVDKAKNSAYLQMNSLRAEDTAVYYCTRTIFTNEGYWFFDVWGQGTLVTVSS
VL: DIQLTQSPSSLSASVGDRVTITCRASESVSIYGSSLMQWYQQKPGKAPKLLIYAASKLASGVPSRFSGSGSGTDFTLTISSLQPEDFATYYCQQTRKAYTFGQGTKLEIK
notes: full human IgG1/kappa
Regarding B2, the “fold improvement of affinity against the parent antibody (GUCY2C-1640)” value with Human GUCY2C ECD Cleaved [1] was determined as 3.4 fold. Further, in the experiment with Human GUCY2C ECD Cleaved [2], the Kd – broadly, the constant that tells how readily two partners part at equilibrium – was found to be 4.07 nM; the koff (usually a measure of how fast the partners let go of each other) is 0.0011 s⁻¹; the kon – broadly, the rate constant with which the complex forms – stood at 272000 M⁻¹ s⁻¹.

B3: GUCY2C-0118, rabbit chimeric IgG version of GUCY2C-0098 (antibody)
heavy: QVQLQQPGAELVKPGASVKLSCKASGYTFTSYWMHWVKQRPGQGLEWIGEIKPSNGLTNYIEKFKNKATLTVDKSATTAYMQLSSLTAEDSAVYYCTRTITTTEGYWFFDVWGAGTTVTVSSGQPKAPSVFPLAPCCGDTPSSTVTLGCLVKGYLPEPVTVTWNSGTLTNGVRTFPSVRQSSGLYSLSSVVSVTSSSQPVTCNVAHPATNTKVDKTVAPSTCSKPTCPPPELLGGPSVFIFPPKPKDTLMISRTPEVTCVVVDVSQDDPEVQFTWYINNEQVRTARPPLREQQFNSTIRVVSTLPIAHQDWLRGKEFKCKVHNKALPAPIEKTISKARGQPLEPKVYTMGPPREELSSRSVSLTCMINGFYPSDISVEWEKNGKAEDNYKTTPAVLDSDGSYFLYSKLSVPTSEWQRGDVFTCSVMHEALHNHYTQKSISRSPGK
light: DIVLTQSPASLAVSLGQRATISCRASESVDYYGTSLMQWYQQKPGQPPKLLIYAASNVESGVPARFSGSGSGTDFSLNIHPVEEDDIAMYFCQQTRKVYTFGGGTKLEIKGDPVAPTVLIFPPAADQVATGTVTIVCVANKYFPDVTVTWEVDGTTQTTGIENSKTPQNSADCTYNLSSTLTLTSTQYNSHKEYTCRVTQGTTSVVQSFNRGDC
notes: also called Rabbit IgG version of clone 9H3
As for B3, the EC50 (in general, the concentration needed to bring the measured effect to its halfway point) in the experiment with Human GUCY2C ECD Cleaved [3] was 0.25 µg/mL.

B4: 9H3 (antibody)
heavy: QVQLQQPGAELVKPGASVKLSCKASGYTFTSYWMHWVKQRPGQGLEWIGEIKPSNGLTNYIEKFKNKATLTVDKSATTAYMQLSSLTAEDSAVYYCTRTITTTEGYWFFDVWGAGTTVTVSSAKTTPPSVYPLAPGSAAQTNSMVTLGCLVKGYFPEPVTVTWNSGSLSSGVHTFPAVLQSDLYTLSSSVTVPSSTWPSETVTCNVAHPASSTKVDKKIVPRDCGCKPCICTVPEVSSVFIFPPKPKDVLTITLTPKVTCVVVDISKDDPEVQFSWFVDDVEVHTAQTQPREEQFNSTFRSVSELPIMHQDWLNGKEFKCRVNSAAFPAPIEKTISKTKGRPKAPQVYTIPPPKEQMAKDKVSLTCMITDFFPEDITVEWQWNGQPAENYKNTQPIMDTDGSYFVYSKLNVQKSNWEAGNTFTCSVLHEGLHNHHTEKSLSHSPGK
light: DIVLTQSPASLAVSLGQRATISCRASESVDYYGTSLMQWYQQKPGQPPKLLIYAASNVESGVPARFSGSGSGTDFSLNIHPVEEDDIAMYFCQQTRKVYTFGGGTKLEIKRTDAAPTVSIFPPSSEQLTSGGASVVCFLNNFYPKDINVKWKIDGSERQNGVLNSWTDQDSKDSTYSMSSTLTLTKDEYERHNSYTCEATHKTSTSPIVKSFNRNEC
notes: Tested as hybridoma antibody; also called GUCY2C-9H3
For B4, the binding result in [4] and in [5] was “binds” throughout.

B5: GUCY2C-1478 (bispecific antibody)
chain 1: DIQLTQSPSSLSASVGDRVTITCRASESVDYYGSSLLQWYQQKPGKAPKLLIYAASKLASGVPSRFSGSGSGTDFTLTISSLQPEDFATYYCQQTRKAYTFGQGTKLEIKGGGSGGGGEVQLVESGGGLVQPGGSLRLSCAASGFTFSDYYMTWVRQAPGKGLEWVAFIRNQARGYTSDHNPSVKGRFTISRDNAKNSLYLQMNSLRAEDTAVYYCARDRPSYYVLDYWGQGTTVTVSSGCPPCPAPEAAGAPSVFLFPPKPKDTLMISRTPEVTCVVVDVSHEDPEVKFNWYVDGVEVHNAKTKPREEQYNSTYRVVSVLTVLHQDWLNGKEYKCKVSNKALPAPIEKTISKAKGQPREPQVCTLPPSREEMTKNQVSLWCLVKGFYPSDIAVEWESNGQPENNYKTTPPVLDSDGSFFLYSKLTVDKSRWQQGNVFSCSVMHEALHNHYTQKSLSLSPG
chain 2: DIQMTQSPSSLSASVGDRVTITCTSSQSLFNVRSQKNYLAWYQQKPGKAPKLLIYWASTRESGVPSRFSGSGSGTDFTLTISSLQPEDFATYYCKQSYDLFTFGGGTKVEIKGGGGSGGGGEVQLVESGGGLVQPGGSLRLSCAASGYTFTSYWMHWVRQAPGKGLEWIGEIKPSNGLTNVHEKFKNRFTISVDKAKNSAYLQMNSLRAEDTAVYYCTRTITTTEGYWFFDVWGQGTLVTVSSGCPPCPAPEAAGAPSVFLFPPKPKDTLMISRTPEVTCVVVDVSHEDPEVKFNWYVDGVEVHNAKTKPREEQYNSTYRVVSVLTVLHQDWLNGKEYKCKVSNKALPAPIEKTISKAKGQPREPQVYTLPPCREEMTKNQVSLSCAVKGFYPSDIAVEWESNGQPENNYKTTPPVLDSDGSFFLVSKLTVDKSRWQQGNVFSCSVMHEALHNHYTQKSLSLSPG
notes: CD3-0006
Consider B5, for which the equilibrium dissociation constant (Kd) was 3.69 nM in experiment [6] and 26.9 nM in the experiment with Human CD3 epsilon-delta. Also, the koff in [6] is 0.000434 s⁻¹; in the experiment with Human CD3 epsilon-delta, 0.00956 s⁻¹. Besides, the kon in experiment [6] stood at 118000 M⁻¹ s⁻¹; in the experiment with Human CD3 epsilon-delta, 355000 M⁻¹ s⁻¹. The EC50 came to 15.7 nM in experiment [7], 19.2 nM in the experiment with Human GUCY2C ECD Cleaved [8], 4.9 nM in [10] and 4.39 nM with Human GUCY2C ECD Cleaved [11]. For the same molecule, the “T84 tumor cell EC50 (T cell cytotoxicity, E:T 5:1)” value in [9] and in experiment [12] was 0.24 nM in each case.
